Results published in patent US20240400638A1, “COMBINATION OF RELAXIN AND VASOPRESSIN ANALOGUES FOR TREATMENT OF RENAL DISORDERS OR CONDITIONS” (River 2 Renal Corp., priority 2021, published 2024).
Numbered stars: 1 amine (or outer) side, 2 acyl side, 3 side chain; on linkers, the order of the positions; unused ones are H or OH. Square brackets hold non-standard residues; d marks the D form. Side chains are listed from the residue outwards. * marks the point of attachment. TTDS = 4-[3-[2-[2-(3-aminopropoxy)ethoxy]ethoxy]propylamino]-4-oxo-butanoyl; Trp(5-F) = N[C@@H](Cc1c[nH]c2ccc(F)cc12)C(=O)O; Phe(4-F) = N[C@@H](Cc1ccc(F)cc1)C(=O)O; γGlu = O=C(O)[C@H](CCC(=O)[*:2])N[*:1]; Palmitoyl = CCCCCCCCCCCCCCCC(=O)*; αMeF = C[C@](N)(Cc1ccccc1)C(=O)O; Myristoyl = CCCCCCCCCCCCCC(=O)*; Cit = NC(=O)NCCC[C@H](N)C(=O)O; αMeK = C[C@](N)(CCCCN)C(=O)O; hLys = NCCCCC[C@H](N)C(=O)O; AEEA = NCCOCCOCC(=O)O; Aib = CC(C)(N)C(=O)O

T1: human RXFP1 (human, UniProt Q9HBX9 1-757)
T1 sequence (looked up): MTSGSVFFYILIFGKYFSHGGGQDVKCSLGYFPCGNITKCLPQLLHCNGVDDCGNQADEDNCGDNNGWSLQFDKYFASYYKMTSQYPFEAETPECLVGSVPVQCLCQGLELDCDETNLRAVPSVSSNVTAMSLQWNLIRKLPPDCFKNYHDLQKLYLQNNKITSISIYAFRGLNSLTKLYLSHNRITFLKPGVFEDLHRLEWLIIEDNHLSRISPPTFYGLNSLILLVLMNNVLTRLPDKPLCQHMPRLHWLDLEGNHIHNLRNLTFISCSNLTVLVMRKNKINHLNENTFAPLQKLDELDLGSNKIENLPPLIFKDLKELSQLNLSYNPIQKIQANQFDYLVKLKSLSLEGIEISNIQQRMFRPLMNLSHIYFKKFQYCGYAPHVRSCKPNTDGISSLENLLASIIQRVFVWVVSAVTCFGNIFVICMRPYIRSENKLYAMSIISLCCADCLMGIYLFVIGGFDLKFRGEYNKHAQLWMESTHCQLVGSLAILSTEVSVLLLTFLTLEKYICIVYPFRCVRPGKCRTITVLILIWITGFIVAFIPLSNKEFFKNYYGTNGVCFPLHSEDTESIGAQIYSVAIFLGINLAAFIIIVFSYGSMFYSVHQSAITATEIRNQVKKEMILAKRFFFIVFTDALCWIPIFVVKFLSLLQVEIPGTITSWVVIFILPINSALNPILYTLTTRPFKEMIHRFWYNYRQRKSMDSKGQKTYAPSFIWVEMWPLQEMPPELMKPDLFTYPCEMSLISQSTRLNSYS


Molecular target: T1, human RXFP1
Assay: cell-based or functional assay

EC50 (nM), OVCAR 5 cells (cAMP) [nM] | EMax, OVCAR 5 cells (cAMP) [%] | Binder
2.4 | 99 | Ac-LEGREKVRAK(Ac)I[Aib][Aib]EGK([TTDS-TTDS-TTDS-γGlu-γGlu-γGlu-Palmitoyl])STFS[Aib]RAK(Ac)-NH2 [Relaxin peptide analogue of SEQ ID NO: 2]
4.6 | 91 | Ac-LEGREKVRAK(Ac)I[Aib][Aib]EGK([TTDS-TTDS-γGlu-γGlu-γGlu-Palmitoyl])STWS[dK]RAK(Ac)-NH2 [Relaxin peptide analogue of SEQ ID NO: 17]
0.77 | 86 | Ac-LEGREKVRAK(Ac)I[Aib][Aib]EGK([TTDS-TTDS-TTDS-γGlu-γGlu-γGlu-Palmitoyl])STFTRRAK(Ac)-NH2 [Relaxin peptide analogue of SEQ ID NO: 93]
0.25 | 94 | Ac-LEGREKVRAK(Ac)I[Aib][Aib]EGK([TTDS-TTDS-TTDS-γGlu-γGlu-γGlu-Palmitoyl])SKWS[Aib]RKK(Ac)-NH2 [Relaxin peptide analogue of SEQ ID NO: 83]
2.1 | 85 | Ac-LEGREKVRAK(Ac)I[Aib][Aib]EGK([TTDS-TTDS-TTDS-γGlu-γGlu-γGlu-Palmitoyl])STF[Aib]KRAK(Ac)-NH2 [Relaxin peptide analogue of SEQ ID NO: 15]
0.79 | 95 | Ac-LEGREKVRAK(Ac)I[Aib][Aib]EGK([TTDS-TTDS-γGlu-γGlu-γGlu-γGlu-Palmitoyl])STFS[αMeK]RAK(Ac)-NH2 [Relaxin peptide analogue of SEQ ID NO: 10]
2.12 | 91 | Ac-LEGREKVRAK(Ac)I[Aib][Aib]EGK([TTDS-TTDS-TTDS-γGlu-γGlu-γGlu-Palmitoyl])STFSKRAK(Ac)-NH2 [Relaxin peptide analogue of SEQ ID NO: 13]
0.1 | 96 | Ac-LEGREKVRAK(Ac)I[Aib][Aib]EGK([TTDS-TTDS-TTDS-γGlu-γGlu-γGlu-Palmitoyl])STFSRRAK(Ac)-NH2 [Relaxin peptide analogue of SEQ ID NO: 87]
0.29 | 98 | Ac-LEGREKVRAK(Ac)I[Aib][Aib]EGK([TTDS-TTDS-TTDS-γGlu-γGlu-γGlu-γGlu-Myristoyl])STFS[αMeK]RAK-NH2 [Relaxin peptide analogue of SEQ ID NO: 97]
6.8 | 88 | Ac-LEGREKVRAK(Ac)I[Aib][Aib]EGK([TTDS-TTDS-γGlu-γGlu-γGlu-Palmitoyl])STFS[dK]RAK(Ac)-NH2 [Relaxin peptide analogue of SEQ ID NO: 16]
0.3 | 92 | Ac-LEGRERVR[Aib]K(Ac)I[Aib][Aib]EGK([TTDS-TTDS-TTDS-γGlu-γGlu-γGlu-Palmitoyl])STWS[Aib]RRK(Ac)-NH2 [Relaxin peptide analogue of SEQ ID NO: 85]
0.54 | 95 | Ac-LEGREKVR[Aib]K(Ac)I[Aib][Aib]EGK([TTDS-TTDS-TTDS-γGlu-γGlu-γGlu-Palmitoyl])STWS[Aib]RAK(Ac)-NH2 [Relaxin peptide analogue of SEQ ID NO: 82]
0.09 | 97 | Ac-LEGRERVRAK(Ac)I[Aib][Aib]EGK([TTDS-TTDS-TTDS-γGlu-γGlu-γGlu-Palmitoyl])ST[Phe(4-F)]S[Aib]RRK(Ac)-NH2 [Relaxin peptide analogue of SEQ ID NO: 91]
0.83 | 93 | Ac-LEGREKVRAK(Ac)I[Aib][Aib]EGK([TTDS-TTDS-TTDS-γGlu-γGlu-γGlu-Palmitoyl])STWS[αMeK]RAK(Ac)-NH2 [Relaxin peptide analogue of SEQ ID NO: 11]
0.14 | 97 | Ac-LEGREKVRAK(Ac)IA[Aib]EGK([TTDS-TTDS-TTDS-γGlu-γGlu-γGlu-Palmitoyl])STFS[αMeK]RAK(Ac)-NH2 [Relaxin peptide analogue of SEQ ID NO: 90]
1.8 | 91 | Ac-LEGREKVRAK(Ac)I[Aib][Aib]EGK([TTDS-TTDS-TTDS-γGlu-γGlu-γGlu-Myristoyl])STFS[αMeK]RAK(Ac)-NH2 [Relaxin peptide analogue of SEQ ID NO: 95]
1.74 | 88 | Ac-LEGREKVRAK(Ac)I[Aib][Aib]EGK([TTDS-TTDS-TTDS-γGlu-γGlu-γGlu-Palmitoyl])STFVRRAK(Ac)-NH2 [Relaxin peptide analogue of SEQ ID NO: 94]
1.86 | 92 | Ac-LEGREKVRAK(Ac)I[Aib][Aib]EGK([AEEA-AEEA-AEEA-AEEA-γGlu-γGlu-γGlu-Palmitoyl])STFS[αMeK]RAK(Ac)-NH2 (SMILES CCCCCCCCCCCCCCCC(=O)N[C@@H](CCC(=O)N[C@@H](CCC(=O)N[C@@H](CCC(=O)NCCOCCOCC(=O)NCCOCCOCC(=O)NCCOCCOCC(=O)NCCOCCOCC(=O)NCCCC[C@H](NC(=O)CNC(=O)[C@H](CCC(=O)O)NC(=O)C(C)(C)NC(=O)C(C)(C)NC(=O)[C@@H](NC(=O)[C@H](CCCCNC(C)=O)NC(=O)[C@H](C)NC(=O)[C@H](CCCNC(=N)N)NC(=O)[C@@H](NC(=O)[C@H](CCCCN)NC(=O)[C@H](CCC(=O)O)NC(=O)[C@H](CCCNC(=N)N)NC(=O)CNC(=O)[C@H](CCC(=O)O)NC(=O)[C@H](CC(C)C)NC(C)=O)C(C)C)[C@@H](C)CC)C(=O)N[C@@H](CO)C(=O)N[C@H](C(=O)N[C@@H](Cc1ccccc1)C(=O)N[C@@H](CO)C(=O)N[C@@](C)(CCCCN)C(=O)N[C@@H](CCCNC(=N)N)C(=O)N[C@@H](C)C(=O)N[C@@H](CCCCNC(C)=O)C(N)=O)[C@@H](C)O)C(=O)O)C(=O)O)C(=O)O) [Relaxin peptide analogue of SEQ ID NO: 8]
0.1 | 97 | Ac-LEGREKVRAK(Ac)I[Aib][Aib]EGK([TTDS-TTDS-TTDS-γGlu-γGlu-γGlu-Palmitoyl])ST[αMeF]SRRAK(Ac)-NH2 [Relaxin peptide analogue of SEQ ID NO: 89]
0.7 | 93 | Ac-LEGREKVRAK(Ac)I[Aib][Aib]EGK([TTDS-TTDS-γGlu-γGlu-Palmitoyl])STFS[αMeK]RAK(Ac)-NH2 [Relaxin peptide analogue of SEQ ID NO: 9]
3.2 | 90 | Ac-LEGREKVRAK(Ac)I[Aib][Aib]EGK([TTDS-TTDS-TTDS-γGlu-γGlu-γGlu-Palmitoyl])STF[dS]KRAK(Ac)-NH2 [Relaxin peptide analogue of SEQ ID NO: 14]
0.1 | 99 | Ac-LEGRERVRAK(Ac)I[Aib][Aib]EGK([TTDS-TTDS-TTDS-γGlu-γGlu-γGlu-Palmitoyl])ST[Trp(5-F)]S[Aib]RRK(Ac)-NH2 [Relaxin peptide analogue of SEQ ID NO: 92]
0.93 | 90 | Ac-LEGREKVRA[Cit]I[Aib][Aib]EGK([TTDS-TTDS-TTDS-γGlu-γGlu-γGlu-Palmitoyl])STFS[αMeK]RAK(Ac)-NH2 [Relaxin peptide analogue of SEQ ID NO: 12]
0.3 | 95 | Ac-[Aib]EGREKVRAK(Ac)I[Aib]IEGK([TTDS-TTDS-TTDS-γGlu-γGlu-γGlu-Palmitoyl])STFS[αMeK]RAK(Ac)-NH2 [Relaxin peptide analogue of SEQ ID NO: 86]
0.17 | 96 | Ac-LEGREKVRAK(Ac)I[Aib][Aib]EGK([TTDS-TTDS-TTDS-γGlu-γGlu-γGlu-Palmitoyl])STFS[hLys]RAK(Ac)-NH2 [Relaxin peptide analogue of SEQ ID NO: 88]
0.1 | 95 | Ac-LEGREKVRAK(Ac)I[Aib]IEGK([TTDS-TTDS-TTDS-γGlu-γGlu-γGlu-Palmitoyl])STFS[αMeK]RAK(Ac)-NH2 [Relaxin peptide analogue of SEQ ID NO: 84]
0.88 | 92 | Ac-LEGREKVRAK(Ac)I[Aib][Aib]EGK([TTDS-TTDS-TTDS-γGlu-γGlu-γGlu-Myristoyl])STFS[αMeK]RAK-NH2 [Relaxin peptide analogue of SEQ ID NO: 96]
